From patent publication US20160002317A1

Target: mAG (monomeric Azami-Green) with C-terminal E. coli BirA biotinylation motif and 6xHis tag
Test: capture of lambda phage on MACS streptavidin beads prebound with biotinylated mAG1; background control

“phage uninduced (control) for α-mAG1 Fab::calmodulin expression” gave a column output (phage (of 5.5×107 added)) of 20000.
